Reference: IntAct's records for PubMed 20890290

B1: Protein dom34 (Schizosaccharomyces pombe (strain ATCC 38366 / 972)), Q9USL5 (parent)
chain: MKLIQKNIEKNGSGWITMCPEEPEDMWHLYNILQVGDQLKASTVRRVVKVGATGSTSGSRVVMKLRILVENMDFDTKAAQLHIKGRTTEYHPEVKMGSYHTLDLELHRNFTLYKNEWDAFALDRVDAACNPSRNAEIGAVVLDEGLANICLITDYMTILRQRIDQVIPRKRRGDSSAYQKGLDKFYDSVFQSINSEFDFDKLKVVILASPGFVARGLYDYIFSMAVKLDLKQIVKSKNKFVILHSSTGHIHSLNEILKDPAVESKLADTKYVQEIRVLNKFYDVMNEDDRKAWYGPNHVLKAFELGAIGELLISDSLFRSSDIATRKKWVSLVEGVKEINCPVYIFSSLHESGKQLDLLSGIAAILTYPVDEEDISEDEEDEESQNFEHS
partner: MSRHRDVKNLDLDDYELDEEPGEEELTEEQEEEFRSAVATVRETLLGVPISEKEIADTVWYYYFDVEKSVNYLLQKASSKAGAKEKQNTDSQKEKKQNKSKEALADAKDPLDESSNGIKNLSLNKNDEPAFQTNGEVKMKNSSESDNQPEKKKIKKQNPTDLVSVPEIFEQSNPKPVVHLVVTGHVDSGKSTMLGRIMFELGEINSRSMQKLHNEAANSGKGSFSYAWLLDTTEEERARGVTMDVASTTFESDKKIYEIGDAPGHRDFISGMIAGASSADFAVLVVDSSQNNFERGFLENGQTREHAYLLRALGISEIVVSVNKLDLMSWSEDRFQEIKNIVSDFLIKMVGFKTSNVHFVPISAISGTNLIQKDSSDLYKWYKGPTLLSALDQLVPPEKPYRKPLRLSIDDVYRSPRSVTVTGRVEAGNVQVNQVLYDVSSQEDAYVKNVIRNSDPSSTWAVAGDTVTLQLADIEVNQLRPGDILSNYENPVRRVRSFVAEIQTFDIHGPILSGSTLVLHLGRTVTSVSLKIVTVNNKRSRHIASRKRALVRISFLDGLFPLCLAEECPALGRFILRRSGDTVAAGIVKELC
B2: Elongation factor 1 alpha-like protein (Schizosaccharomyces pombe (strain ATCC 38366 / 972)), O74774 (parent)
chain: B1 partner
partner: B1 chain

Variants of: B1
Conditions: with hbs1_schpo hbs1, O74774

Effect of a mutation on the interaction, decreasing interaction:
MKLIQKNIEKNGSGWITMCPEEPEDMWHLYNILQVGDQLKASTVRRVVKVGATGSTSGSRVVMKLRILVENMDFDTKAAQLHIKGRTTEYHPEVKMGSYHTLDLELHRNFTLYKNEWDAFALDRVDAACNPSRNAEIGAVVLDEGLANICLITDYMTILRQRIAQVIPRKRRGDSSAYQKGLDKFYDSVFQSINSEFDFDKLKVVILASPGFVARGLYDYIFSMAVKLDLKQIVKSKNKFVILHSSTGHIHSLNEILKDPAVESKLADTKYVQEIRVLNKFYDVMNEDDRKAWYGPNHVLKAFELGAIGELLISDSLFRSSDIATRKKWVSLVEGVKEINCPVYIFSSLHESGKQLDLLSGIAAILTYPVDEEDISEDEEDEESQNFEHS [D164A]
MKLIQKNIEKNGSGWITMCPEEPEDMWHLYNILQVGDQLKASTVRRVVKVGATGSTSGSRVVMKLRILVENMDFDTKAAQLHIKGRTTEYHPEVKMGSYHTLDLELHRNFTLYKNEWDAFALDRVDAACNPSRNAEIGAVVLDEGLANICLITDYMTILRQAIDQVIPRKRRGDSSAYQKGLDKFYDSVFQSINSEFDFDKLKVVILASPGFVARGLYDYIFSMAVKLDLKQIVKSKNKFVILHSSTGHIHSLNEILKDPAVESKLADTKYVQEIRVLNKFYDVMNEDDRKAWYGPNHVLKAFELGAIGELLISDSLFRSSDIATRKKWVSLVEGVKEINCPVYIFSSLHESGKQLDLLSGIAAILTYPVDEEDISEDEEDEESQNFEHS [R162A]

Variants of: B2
Conditions: with dom34_schpo dom34, Q9USL5

Effect of a mutation on the interaction, decreasing interaction:
MSRHRDVKNLDLDDYELDEEPGEEELTEEQEEEFRSAVATVRETLLGVPISEKEIADTVWYYYFDVEKSVNYLLQKASSKAGAKEKQNTDSQKEKKQNKSKEALADAKDPLDESSNGIKNLSLNKNDEPAFQTNGEVKMKNSSESDNQPEKKKIKKQNPTDLVSVPEIFEQSNPKPVVHLVVTGHVDSGKSTMLGRIMFELGEINSRSMQKLHNEAANSGKGSFSYAWLLDTTEEERARGVTMDVASTTFESDKKIYEIGDAPGHRDFISGMIAGASSADFAVLVVDSSQNNFERGFLENGQTREHAYLLRALGISEIVVSVNKLDLMSWSEDRFQEIKNIVSDFLIKMVGFKTSNVHFVPISAISGTNLIQKDSSDLYKWYKGPTLLSALDQLVPPEKPYRKPLRLSIDDVYRSPRSVTVTGRVEAGNVQVNQVLYDVSSQEDAYVKNVIRNSDPSSTWAVAGDTVTLQLADIEVNQLRPGDILSNYENPVRRVRSFVAEIQTFDIHGPILSGSTLVLHLGRTVTSVSLKIVTVNNKRSAHIASRKRALVRISFLDGLFPLCLAEECPALGRFILRRSGDTVAAGIVKELC [R541A]
MSRHRDVKNLDLDDYELDEEPGEEELTEEQEEEFRSAVATVRETLLGVPISEKEIADTVWYYYFDVEKSVNYLLQKASSKAGAKEKQNTDSQKEKKQNKSKEALADAKDPLDESSNGIKNLSLNKNDEPAFQTNGEVKMKNSSESDNQPEKKKIKKQNPTDLVSVPEIFEQSNPKPVVHLVVTGHVDSGKSTMLGRIMFELGEINSRSMQKLHNEAANSGKGSFSYAWLLDTTEEERARGVTMDVASTTFESDKKIYEIGDAPGHRDFISGMIAGASSADFAVLVVDSSQNNFERGFLENGQTREHAYLLRALGISEIVVSVNKLDLMSWSEDRFQEIKNIVSDFLIKMVGFKTSNVHFVPISAISGTNLIQKDSSDLYKWYKGPTLLSALDQLVPPEKPYRKPLRLSIDDVYRSPRSVTVTGRVEAGNVQVNQVLYDVSSQEDAYVKNVIRNSDPSSTWAVAGDTVTLQLADIEVNQLRPGDILSNYENPVRRVRSFVAEIQTFDIHGPILSGSTLVLHLGRTVTSVSLKIVTVNNKRSRHIASRKRALVRISFLAGLFPLCLAEECPALGRFILRRSGDTVAAGIVKELC [D557A]
MSRHRDVKNLDLDDYELDEEPGEEELTEEQEEEFRSAVATVRETLLGVPISEKEIADTVWYYYFDVEKSVNYLLQKASSKAGAKEKQNTDSQKEKKQNKSKEALADAKDPLDESSNGIKNLSLNKNDEPAFQTNGEVKMKNSSESDNQPEKKKIKKQNPTDLVSVPEIFEQSNPKPVVHLVVTGHVDSGKSTMLGRIMFELGEINSRSMQKLHNEAANSGKGSFSYAWLLDTTEEERARGVTMDVASTTFESDKKIYEIGDAPGHRDFISGMIAGASSADFAVLVVDSSQNNFERGFLENGQTREHAYLLRALGISEIVVSVNKLDLMSWSEDRFQEIKNIVSDFLIKMVGFKTSNVHFVPISAISGTNLIQKDSSDLYKWYKGPTLLSALDQLVPPEKPYRKPLRLSIDDVYRSPRSVTVTGRVEAGNVQVNQVLYDVSSQEDAYVKNVIRNSDPSSTWAVAGDTVTLQLADIEVNQLRPGDILSNYENPVRRVRSFVAEIQTFDIHGPILSGSTLVLHLGRTVTSVSLAIVTVNNKRSRHIASRKRALVRISFLDGLFPLCLAEECPALGRFILRRSGDTVAAGIVKELC [K531A]
MSRHRDVKNLDLDDYELDEEPGEEELTEEQEEEFRSAVATVRETLLGVPISEKEIADTVWYYYFDVEKSVNYLLQKASSKAGAKEKQNTDSQKEKKQNKSKEALADAKDPLDESSNGIKNLSLNKNDEPAFQTNGEVKMKNSSESDNQPEKKKIKKQNPTDLVSVPEIFEQSNPKPVVHLVVTGHVDSGKSTMLGRIMFELGEINSRSMQKLHNEAANSGKGSFSYAWLLDTTEEERARGVTMDVASTTFESDKKIYEIGDAPGHRDFISGMIAGASSADFAVLVVDSSQNNFERGFLENGQTREHAYLLRALGISEIVVSVNKLDLMSWSEDRFQEIKNIVSDFLIKMVGFKTSNVHFVPISAISGTNLIQKDSSDLYKWYKGPTLLSALDQLVPPEKPYRKPLRLSIDAVYRSPRSVTVTGRVEAGNVQVNQVLYDVSSQEDAYVKNVIRNSDPSSTWAVAGDTVTLQLADIEVNQLRPGDILSNYENPVRRVRSFVAEIQTFDIHGPILSGSTLVLHLGRTVTSVSLKIVTVNNKRSRHIASRKRALVRISFLDGLFPLCLAEECPALGRFILRRSGDTVAAGIVKELC [D411A]
MSRHRDVKNLDLDDYELDEEPGEEELTEEQEEEFRSAVATVRETLLGVPISEKEIADTVWYYYFDVEKSVNYLLQKASSKAGAKEKQNTDSQKEKKQNKSKEALADAKDPLDESSNGIKNLSLNKNDEPAFQTNGEVKMKNSSESDNQPEKKKIKKQNPTDLVSVPEIFEQSNPKPVVHLVVTGHVDSGKSTMLGRIMFELGEINSRSMQKLHNEAANSGKGSFSYAWLLDTTEEERARGVTMDVASTTFESDKKIYEIGDAPGHRDFISGMIAGASSADFAVLVVDSSQNNFERGFLENGQTREHAYLLRALGISEIVVSVNKLDLMSWSEDRFQEIKNIVSDFLIKMVGFKTSNVHFVPISAISGTNLIQKDSSDLYKWYKGPTLLSALDQLVPPEKPYRKPLRLSIDDVYRSPRSVTVTGRVEAGNVQVNQVLYDVSSQEDAYVKNVIRNSDPSSTWAVAGDTVTLQLADIEVNQLRPGDILSNYENPVRRVRSFVAEIQTFDIHGPILSGSTLVLHLGATVTSVSLKIVTVNNKRSRHIASRKRALVRISFLDGLFPLCLAEECPALGRFILRRSGDTVAAGIVKELC [R523A]
MSRHRDVKNLDLDDYELDEEPGEEELTEEQEEEFRSAVATVRETLLGVPISEKEIADTVWYYYFDVEKSVNYLLQKASSKAGAKEKQNTDSQKEKKQNKSKEALADAKDPLDESSNGIKNLSLNKNDEPAFQTNGEVKMKNSSESDNQPEKKKIKKQNPTDLVSVPEIFEQSNPKPVVHLVVTGHVDSGKSTMLGRIMFELGEINSRSMQKLHNEAANSGKGSFSYAWLLDTTEEERARGVTMDVASTTFESDKKIYEIGDAPGHRDFISGMIAGASSADFAVLVVDSSQNNFERGFLENGQTREHAYLLRALGISEIVVSVNKLDLMSWSEDRFQEIKNIVSDFLIKMVGFKTSNVHFVPISAISGTNLIQKDSSDLYKWYKGPTLLSALDQLVPPEKPYRKPLRLSIDDVYRSPRSVTVTGRVEAGNVQVNQVLYDVSSQEDAYVKNVIRNSDPSSTWAVAGDTVTLQLADIEVNQLAPGDILSNYENPVRRVRSFVAEIQTFDIHGPILSGSTLVLHLGRTVTSVSLKIVTVNNKRSRHIASRKRALVRISFLDGLFPLCLAEECPALGRFILRRSGDTVAAGIVKELC [R480A]
